From US20220281982A1

Molecular target: NKG2D (human) (UniProt P26718)
Test: cell-based or functional assay

Sequence of UniProt P26718 (P26718 whole entry): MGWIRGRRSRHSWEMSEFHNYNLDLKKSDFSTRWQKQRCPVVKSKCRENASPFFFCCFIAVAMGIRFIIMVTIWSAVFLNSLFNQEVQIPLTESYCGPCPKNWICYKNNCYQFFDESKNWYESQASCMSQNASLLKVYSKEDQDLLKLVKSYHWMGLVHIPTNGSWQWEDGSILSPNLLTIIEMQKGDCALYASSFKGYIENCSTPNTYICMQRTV

Ki67 expression of T cells cultured without IL-2: 80%
B1: anti-NKG2D-anti-CS1 bispecific antibody (bispecific antibody, part only; not given: anti-CS1 scFv and linkers, part only)
chain, part: QVQLVESGGGLVKPGGSLRLSCAASGFTFSSYGMHWVRQAPGKGLEWVAFIRYDGSNKYYADSVKGRFTISRDNSKNTLYLQMNSLRAEDTAVYYCAKDRGLGDGTYFDYWGQGTTVTVSSQSALTQPASVSGSPGQSITISCSGSSSNIGNNAVNWYQQLPGKAPKLLIYYDDLLPSGVSDRFSGSKSGTSAFLAISGLQSEDEADYYCAAWDDSLNGPVFGGGTKLTVLPSGQAGAAASESLFVSNHAYHHHHHH
